Measured values taken from publication PMC5797019 (2017).

Biological target: vp22-RelA302-316 peptide (herpes virus | , UniProt Q04206 302-316)
Experiment: SPR

B1: His-SETD6 (enzyme)
chain: MATQAKRPRVAGPVDGGDLDPVACFLSWCRRVGLELSPKVSERAGGRRTRGGARAALTSPPAQVAVSRQGTVAGYGMVARESVQAGELLFVVPRAALLSQHTCSIGGLLERERVALQSQSGWVPLLLALLHELQAPASRWRPYFALWPELGRLEHPMFWPEEERRCLLQGTGVPEAVEKDLANIRSEYQSIVLPFMEAHPDLFSLRVRSLELYHQLVALVMAYSFQEPLEEEEDEKEPNSPVMVPAADILNHLANHNANLEYSANCLRMVATQPIPKGHEIFNTYGQMANWQLIHMYGFVEPYPDNTDDTADIQMVTVREAALQGTKTEAERHLVYERWDFLCKLEMVGEEGAFVIGREEVLTEEELTTTLKVLCMPAEEFRELKDQDGGGDDKREEGSLTITNIPKLKASWRQLLQNSVLLTLQTYATDLKTDQGLLSNKEVYAKLSWREQQALQVRYGQKMILHQLLELTS
B1 was tested, and the Kd was 1100 nM.
